Measurements as given in paper PMC8352653 (Cell Reports, 2021).

B1: COV2-2002 (antibody, V domains shown)
VH: EVQLVESGGGLVQPGGSLRLSCAASGFTFSFYWMSWVRQAPGKGLEWVANIKQDGSEKYYVDSVKGRSTISRDNAKNSLYLQMNSLRAEDTAVYYCARVGSSSWYFDYWGQGTLVTVSS
VL: not shown
B2: COV2-2333 (antibody, V domains shown)
VH: EVQLVESGGGLVQPGGSLRLSCAASGFTFSIYWMSWVRQAPGKGLQWVANIKQDASEKYYVDSVKGRFTISRDNAKNSLYLQMNSLRAEDTAVYYCARLGGSSWHFDYWGQGTLVTVSS
VL: SYELTQPPSVSVSPGQTASITCSGDKLGDKYSSWYQQKPGQSPVLVIYEDTKRPSGIPERFSGSNSGNTATLTISGTQAMDEADYYCQAWSSSTAVFGGGTKLTVL
B3: COV2-2531 (antibody, V domains shown)
VH: QVQLQESGPGLVKPSETLSLTCSVSGGSIRSYFWNWVRQPPGKGLEWIGYIYYSGSTNYKPSFKSRVTISLDTSKNQISLKLSSVTAADTAVYYCARATWLRDAFGIWGQGTMVTVSS
VL: NFMLTQPHSVSESPGKTVTISCTGNSGSIASNYVQWYQQRPGSAPTTVIYEDSQRPSGVPDRFSGSIDSSSNSASLTISGLKTEDEADYYCQSFDSGNVVFGGGTKLTVL
B4: C126 (antibody, V domains shown)
VH: QVQLQESGPGLVKPSETLSLSCAVSGGSIGSYFWSWIRQPPGKGLEWIGYLHYSGSTNYNPSLKSRVTISVDTSKNQFSLKLSSVTAADTAVYYCARLQWLRGAFDIWGQGTMVTVSS
VL: NFMLTQPHSVSESPGKTVTISCTGSSGSIASNYVQWYQQRPGSAPTTVINEDNQRPSGVPDRFSGSIDSSSNSASLTISGLKTEDEADYYCQSYDSSNLVFGGGTKLTVL
B5: CnC2t1p1_B10 (antibody, V domains shown)
VH: QVQLVQSGAEVKKPGSSVKVSCKASGGTFSSYAISWVRQAPGQGLEWMGGIIPIFGTANYAQKFQGRVTITADKSTSTAYMELSSLRSEDTAVYYCARVSGYDSSGYWGDYWGQGTLVTVSS
VL: EIVLTQSPATLSLSPGERATLSCRASQSVSSYLAWYQQKPGQAPRLLIYDASNRATGIPARFSGSGSGTDFTLTISSLEPEDFAVYYCQQRSNWPPALTFGGGTKVEIK
B6: COV2-2531 Fab (Fab, V domains shown)
VH: QVQLQESGPGLVKPSETLSLTCSVSGGSIRSYFWNWVRQPPGKGLEWIGYIYYSGSTNYKPSFKSRVTISLDTSKNQISLKLSSVTAADTAVYYCARATWLRDAFGIWGQGTMVTVSS
VL: NFMLTQPHSVSESPGKTVTISCTGNSGSIASNYVQWYQQRPGSAPTTVIYEDSQRPSGVPDRFSGSIDSSSNSASLTISGLKTEDEADYYCQSFDSGNVVFGGGTKLTVL
B7: C126 Fab (Fab, V domains shown)
VH: QVQLQESGPGLVKPSETLSLSCAVSGGSIGSYFWSWIRQPPGKGLEWIGYLHYSGSTNYNPSLKSRVTISVDTSKNQFSLKLSSVTAADTAVYYCARLQWLRGAFDIWGQGTMVTVSS
VL: NFMLTQPHSVSESPGKTVTISCTGSSGSIASNYVQWYQQRPGSAPTTVINEDNQRPSGVPDRFSGSIDSSSNSASLTISGLKTEDEADYYCQSYDSSNLVFGGGTKLTVL

Each binder was assayed against full-length SARS-CoV-2 S protein expressed in HEK293T cells (SARS-CoV-2, Wuhan-Hu-1, UniProt P0DTC2) (assay: flow cytometry on cells).
B1: binds. B2: binds. B3: binds. B4: binds. B5: binds.

The binders below were run against variant of S6P_(ecto) protein containing a C-terminal Twin-Strep-tag (SARS-CoV-2, Wuhan-Hu-1 (assumed), UniProt P0DTC2, stabilised) (assay: negative stain electron microscopy).
B6: binds. B7: binds.
